Results published in paper PMC8079415 (2021).

Target: full-length human Bcl-2 protein (human, UniProt P10415 1-239)
Assay: NMR; 5 mM DPC micelles, pH 6.0, 310 K

Chain of full-length human Bcl-2 protein (P10415 other isoform, or with tags, fused parts or gaps): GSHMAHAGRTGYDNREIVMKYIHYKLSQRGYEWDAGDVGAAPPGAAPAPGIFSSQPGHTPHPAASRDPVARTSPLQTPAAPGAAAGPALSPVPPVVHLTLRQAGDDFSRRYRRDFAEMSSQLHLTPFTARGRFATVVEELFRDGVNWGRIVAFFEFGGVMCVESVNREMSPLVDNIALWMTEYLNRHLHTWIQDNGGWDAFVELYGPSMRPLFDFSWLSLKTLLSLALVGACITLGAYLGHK

Kd: 143 µM
B1: 36-mer Bax-BH3 peptide from Mus musculus (peptide)
peptide: Ac-QPPQDASTKKLSECLRRIGDELDSNMELQRMIADVD-NH2
